Results on 5 molecules are retold here after US7151087 (US Dept. of Health and Human Services, dated 2006).

T1: CC CKR1, stably expressed on HEK 293 cells (Homo sapiens (Human), UniProt P32246 1-355)
T1 construct: also called CC CKLR1
T1 sequence: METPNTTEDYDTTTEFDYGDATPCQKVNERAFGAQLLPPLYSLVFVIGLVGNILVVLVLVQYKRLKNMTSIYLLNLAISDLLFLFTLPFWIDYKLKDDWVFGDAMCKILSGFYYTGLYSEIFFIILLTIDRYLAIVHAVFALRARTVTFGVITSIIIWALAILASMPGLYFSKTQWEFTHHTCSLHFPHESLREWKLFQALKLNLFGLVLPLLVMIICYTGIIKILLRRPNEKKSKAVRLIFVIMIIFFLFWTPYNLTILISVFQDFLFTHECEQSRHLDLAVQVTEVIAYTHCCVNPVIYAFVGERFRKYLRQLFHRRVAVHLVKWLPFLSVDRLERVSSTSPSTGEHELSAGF

B1: MIP-1β (ligand, human, UniProt P13236 24-92, looked up)
chain: APMGSDPPTACCFSYTARKLPRNFVVDYYETSSLCSQPAVVFQTKRSKQVCADPSESWVQEYVYDLELN
B2: MIP-1α (ligand, human, UniProt P10147 23-92, looked up)
chain: ASLAADTPTACCFSYTSRQIPQNFIADYFETSSQCSKPGVIFLTKRSRQVCADPSEEWVQKYVSDLELSA
notes: also called unlabeled MIP-1α
B3: MCP-3 (ligand)
chain: not shown
notes: also called unlabeled MCP-3
B4: CC CKR2B, stably expressed on HEK 293 cells (receptor)
chain: MLSTSRSRFIRNTNESGEEVTTFFDYDYGAPCHKFDVKQIGAQLLPPLYSLVFIFGFVGNMLVVLILINCKKLKCLTDIYLLNLAISDLLFLITLPLWAHSAANEWVFGNAMCKLFTGLYHIGYFGGIFFIILLTIDRYLAIVHAVFALKARTVTFGVVTSVITWLVAVFASVPGIIFTKCQKEDSVYVCGPYFPRGWNNFHTIMRNILGLVLPLLIMVICYSGILKTLLRCRNEKKRHRAVRVIFTIMIVYFLFWTPYNIVILLNTFQEFFGLSNCESTSQLDQATQVTETLGMTHCCINPIIYAFVGEKFRRYLSVFFRKHITKRFCKQCPVFYRETVDGVTSTNTPSTGEQEVSAGL
notes: also called CCR2b
B5: RANTES (ligand, human, UniProt P13501 24-91, looked up)
chain: SPYSSDTTPCCFAYIARPLPRAHIKEYFYTSGKCSNPAVVFVTRKNRQVCANPEKKWVREYINSLEMS
notes: also called unlabeled RANTES

For test [1], the target named is T2, CC chemokine receptor 5 (CCR5), clone 8.5 cDNA, stably expressed on HEK 293 cells (human, UniProt P51681 1-352).
T2 construct: also called CC CKR5; CCR5 transfectants
T2 sequence (P51681 whole entry): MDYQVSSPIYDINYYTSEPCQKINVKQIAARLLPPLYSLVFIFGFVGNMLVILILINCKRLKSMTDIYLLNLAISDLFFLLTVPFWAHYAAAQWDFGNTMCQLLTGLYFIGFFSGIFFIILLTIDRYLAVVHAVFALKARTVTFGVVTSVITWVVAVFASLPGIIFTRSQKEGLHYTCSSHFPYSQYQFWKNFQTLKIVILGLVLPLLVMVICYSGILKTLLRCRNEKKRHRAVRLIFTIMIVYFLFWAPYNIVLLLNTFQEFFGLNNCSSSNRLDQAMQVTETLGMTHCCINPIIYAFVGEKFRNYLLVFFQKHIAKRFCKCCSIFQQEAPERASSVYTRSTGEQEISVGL
Briefly: homologous competition against ^125I-MIP-1β on CCR5.1 cells.
Procedure: (§1) After incubation for 1 h at 4° C. or 37° C., unbound chemokines were separated from cells by pelleting through a 10% sucrose/PBS cushion, and the cell-associated counts were determined.

The target in test [2] is T1, CC CKR1, stably expressed on HEK 293 …. Briefly: homologous competition against ^125I-MIP-1β on CC CKR1 cells.
Procedure: as §1
In test [3] the target is T2, CC chemokine receptor 5 (CCR5), clone …. Briefly: homologous competition against ^125I-MIP-1β; reference CC CKR1 cells.
Procedure: as §1
For test [4] the target is unchanged. In words: homologous competition against ^125I-MIP-1α on CCR5.1 cells.
Procedure: as §1
The target of test [5] is T1, CC CKR1, stably expressed on HEK 293 …. In words: heterologous competition against ^125I-RANTES on CC CKR1 cells, 37° C.
Procedure: as §1
Test [6] shares this target. Briefly: homologous competition against ^125I-MIP-1α on CC CKR1 cells.
Procedure: as §1
For test [7] the target is unchanged. In words: homologous competition against ^125I-MIP-1α; reference CCR5.1 cells.
Procedure: as §1
Test [8] shares this target. In words: homologous competition against ^125I-MIP-1α on CC CKR1-transfected HEK 293 cells, 4° C.
Procedure: as §1
Each of the six CCR5 transfectants were tested at 4° C.
Test [9] has the same target. In words: radioligand binding at 37° C. to CC CKR1-transfected HEK 293 cells.
Procedure: as §1
The target in test [10] is B1. Briefly: radioligand binding to intact transfected HEK 293 cells, 0.2 nM ^125I-chemokine.
Procedure: as §1
The target in test [11] is B2. The test is described as above.
Procedure: as §1
The target of test [12] is B5. Described as above.
Procedure: as §1
Test [13] has as its target T1, CC CKR1, stably expressed on HEK 293 …. Briefly: radioligand binding at 37° C. to CC CKR1 cells.
Procedure: as §1

By IC50 is commonly meant the concentration needed to halve the response being measured. By Ki is commonly meant a dissociation constant, usually derived from enzyme kinetics or from competition with a known ligand.

Turning to B1, the IC50 in test [1] is about 100 nM; in test [2], about 200 nM. For the same molecule, the “fold more effective competition on CCR5.1 than on CC CKR1” value in test [3] is about 2 fold.
Take B2: the IC50 is about 100 nM in [4], about 20 nM in test [5] and about 5 nM in [6]. Also, in test [7], the “fold more effective competition on CC CKR1 than on CCR5.1” value was determined as 20 fold. In [8], this molecule had a Ki of 10 nM.
With B3, the binding result in [9] is “binds”.
With B4, the binding result in test [10], in test [11] and in test [12] was “no binding” each time.
With B5, the binding result in test [13] was “binds”.
